According to publication doi:10.1101/2025.09.09.675230:

Assays:
[1] = target: Measles virus hemagglutinin (H) ectodomain with twin StrepII tag (HECT-TS), residues 149-617 (Measles virus strain IC323 (Ichinose-B95a)); experiment: cryo-EM structure
[2] = target: Measles virus hemagglutinin (H) ectodomain, untagged (HECT), residues 149-617 (Measles virus strain IC323 (Ichinose-B95a)); experiment: cryo-EM structure

| Substance | stoichiometry N [1] | stoichiometry N [2] |
| --- | --- | --- |
| Measles virus hemagglutinin (H) ectodomain with twin StrepII tag (HECT-TS), residues 149-617 (domain or fragment) | 2 | – |
| Measles virus hemagglutinin (H) ectodomain, untagged (HECT), residues 149-617 (domain or fragment) | – | 2 |
